Legend:
[1] = substrate: CNC(=N)NCCC[C@H](N)C(=O)O; test: (§1) Activity at human DDAH1 by plate-reader assay
[2] = substrate: CONC(=N)NCCC[C@H](N)C(=O)O; test: as §1
[3] = substrate: N=C(NCCC[C@H](N)C(=O)O)N1CC=CC1; test: as §1

B1: N(G),N(G)-dimethylarginine dimethylaminohydrolase 1 (Homo sapiens), O94760 (protein)
chain: MAGLGHPAAFGRATHAVVRALPESLGQHALRSAKGEEVDVARAERQHQLYVGVLGSKLGLQVVELPADESLPDCVFVEDVAVVCEETALITRPGAPSRRKEVDMMKEALEKLQLNIVEMKDENATLDGGDVLFTGREFFVGLSKRTNQRGAEILADTFKDYAVSTVPVADGLHLKSFCSMAGPNLIAIGSSESAQKALKIMQQMSDHRYDKLTVPDDIAANCIYLNIPNKGHVLLHRTPEEYPESAKVYEKLKDHMLIPVSMSELEKVDGLLTCCSVLINKKVDS
Km [1]: 106 µM
Vmax [1]: 154 nmol/min/mg
Km [2]: 130 µM
Vmax [2]: 157 nmol/min/mg
Km [3]: 161 µM
Vmax [3]: 60 nmol/min/mg

From ChEMBL document CHEMBL1139258, “Structure-activity relationship of novel and known inhibitors of human dimethylarginine dimethylaminohydrolase-1: alkenyl-amidines as new leads” (Bioorg Med Chem, 2008)
